Experimental data from patent US20030166571A1 (SYNVAX, published 2003).
Numbered stars: 1 amine (or outer) side, 2 acyl side, 3 side chain; on linkers, the order of the positions; unused ones are H or OH. Square brackets hold non-standard residues; d marks the D form. hPhe(2,4-di-NO2) = 2,4-di-NO2 homophenylalanine, O=C([C@H](CCc1ccc([N+](=O)[O-])cc1[N+](=O)[O-])N[*:1])[*:2]; Phe(4-CH2SO3H) = N[C@@H](Cc1ccc(CS(=O)(=O)O)cc1)C(=O)O; Phe(4-NO2) = N[C@@H](Cc1ccc([N+](=O)[O-])cc1)C(=O)O; Phe(4-F) = N[C@@H](Cc1ccc(F)cc1)C(=O)O; Dmt = Cc1cc(O)cc(C)c1C[C@H](N)C(=O)O; Dab = NCC[C@H](N)C(=O)O; Dap = NC[C@H](N)C(=O)O; Ahx = NCCCCCC(=O)O

B1: VII-65-F (peptide)
peptide: Ac-[Dap]YYRWR-NH2
SMILES: CC(=O)N[C@@H](CN)C(=O)N[C@@H](Cc1ccc(O)cc1)C(=O)N[C@@H](Cc1ccc(O)cc1)C(=O)N[C@@H](CCCNC(=N)N)C(=O)N[C@@H](Cc1c[nH]c2ccccc12)C(=O)N[C@@H](CCCNC(=N)N)C(N)=O
notes: also called Ac-Dap-Tyr-Tyr-Arg-Trp-Arg-NH2
B2: VII-75-B (peptide)
peptide: Ac-RY[Phe(4-CH2SO3H)]RWR-NH2
SMILES: CC(=O)N[C@@H](CCCNC(=N)N)C(=O)N[C@@H](Cc1ccc(O)cc1)C(=O)N[C@@H](Cc1ccc(CS(=O)(=O)O)cc1)C(=O)N[C@@H](CCCNC(=N)N)C(=O)N[C@@H](Cc1c[nH]c2ccccc12)C(=O)N[C@@H](CCCNC(=N)N)C(N)=O
notes: also called Ac-Arg-Tyr-Phe(4-CH2SO3H)-Arg-Trp-Arg-NH2
B3: VII-73-A (peptide)
peptide: Ac-RY[Dmt]RWR-NH2
SMILES: CC(=O)N[C@@H](CCCNC(=N)N)C(=O)N[C@@H](Cc1ccc(O)cc1)C(=O)N[C@@H](Cc1c(C)cc(O)cc1C)C(=O)N[C@@H](CCCNC(=N)N)C(=O)N[C@@H](Cc1c[nH]c2ccccc12)C(=O)N[C@@H](CCCNC(=N)N)C(N)=O
notes: also called Ac-Arg-Tyr-Tyr(2,6-di-Me)-Arg-Trp-Arg-NH2
B4: VII-61-B (peptide)
peptide: Ac-RY[Phe(4-F)]RWR-NH2
SMILES: CC(=O)N[C@@H](CCCNC(=N)N)C(=O)N[C@@H](Cc1ccc(O)cc1)C(=O)N[C@@H](Cc1ccc(F)cc1)C(=O)N[C@@H](CCCNC(=N)N)C(=O)N[C@@H](Cc1c[nH]c2ccccc12)C(=O)N[C@@H](CCCNC(=N)N)C(N)=O
notes: also called Ac-Arg-Tyr-Phe(4-F)-Arg-Trp-Arg-NH2
B5: VII-57-C (peptide)
peptide: Ac-RYYRW[Ahx]-NH2
SMILES: CC(=O)N[C@@H](CCCNC(=N)N)C(=O)N[C@@H](Cc1ccc(O)cc1)C(=O)N[C@@H](Cc1ccc(O)cc1)C(=O)N[C@@H](CCCNC(=N)N)C(=O)N[C@@H](Cc1c[nH]c2ccccc12)C(=O)NCCCCCC(N)=O
notes: also called Ac-Arg-Tyr-Tyr-Arg-Trp-ε-aminocaproyl-NH2
B6: VII-63-B (peptide)
peptide: Ac-RY[Phe(4-NO2)]RWR-NH2
SMILES: CC(=O)N[C@@H](CCCNC(=N)N)C(=O)N[C@@H](Cc1ccc(O)cc1)C(=O)N[C@@H](Cc1ccc([N+](=O)[O-])cc1)C(=O)N[C@@H](CCCNC(=N)N)C(=O)N[C@@H](Cc1c[nH]c2ccccc12)C(=O)N[C@@H](CCCNC(=N)N)C(N)=O
notes: also called Ac-Arg-Tyr-Phe(4-NO2)-Arg-Trp-Arg-NH2
B7: VII-67-A (peptide)
peptide: Ac-[Dab]YYRWR-NH2
SMILES: CC(=O)N[C@@H](CCN)C(=O)N[C@@H](Cc1ccc(O)cc1)C(=O)N[C@@H](Cc1ccc(O)cc1)C(=O)N[C@@H](CCCNC(=N)N)C(=O)N[C@@H](Cc1c[nH]c2ccccc12)C(=O)N[C@@H](CCCNC(=N)N)C(N)=O
notes: also called Ac-Dab-Tyr-Tyr-Arg-Trp-Arg-NH2
B8: VII-71-B (peptide)
peptide: Ac-RY[hPhe(2,4-di-NO2)]RWR-NH2
SMILES: CC(=O)N[C@@H](CCCNC(=N)N)C(=O)N[C@@H](Cc1ccc(O)cc1)C(=O)N[C@@H](CCc1ccc([N+](=O)[O-])cc1[N+](=O)[O-])C(=O)N[C@@H](CCCNC(=N)N)C(=O)N[C@@H](Cc1c[nH]c2ccccc12)C(=O)N[C@@H](CCCNC(=N)N)C(N)=O
notes: also called Ac-Arg-Tyr-hPhe(2,4-di-NO2)-Arg-Trp-Arg-NH2

Key:
[1] = molecular target: T1, human ORL-1 receptor (opioid receptor like 1) (human, UniProt P41146 1-370); assay: [3H]nociceptin displacement, membranes of CHO cells transfected with human ORL-1; Ki=IC50/(1+L/Kd)
T1 construct: whole, on cells; Assays were run on membranes of CHO cells transfected with human ORL-1; also called opiate receptor like 1; nociceptin receptor
Method: Receptor binding studies were conducted on human ORL1 (opiate receptor like 1) transfected into Chinese hamster ovary (CHO) cells using each of the hexapeptide analog compounds of Table 3. All the compounds were evaluated for binding affinities. […] The data shown in Table 5 represents the average±SEM of at least two experiments conducted in triplicate.
Cells are removed from the plates by scraping with a rubber policeman, and then homogenized in Tris buffer using a Polytron homogenizer. Following this homogenization step, the cellular mixture is centrifuged once and washed by an additional centrifugation at 40,000×g for 15 min. The pellet formed during the centrifugation is re-suspended in 50 mM Tris, pH 7.5. […] Samples of the suspension are then filtered over glass fiber filters using a Wallac cell harvester.
For the data in Table 5, binding was conducted as described above. IC₅₀ values and Hill coefficients were determined using the curve-fitting program Prism. K₁ values were calculated using the equation K₁=IC₅₀/(1+[L]/Kd). […] The data in Table 5 represent the average±SEM of at least two experiments conducted in triplicate.

[2] = molecular target: T1, human ORL-1 receptor (opioid receptor …); assay: cell-based or functional assay

T1 sequence (P41146 whole entry): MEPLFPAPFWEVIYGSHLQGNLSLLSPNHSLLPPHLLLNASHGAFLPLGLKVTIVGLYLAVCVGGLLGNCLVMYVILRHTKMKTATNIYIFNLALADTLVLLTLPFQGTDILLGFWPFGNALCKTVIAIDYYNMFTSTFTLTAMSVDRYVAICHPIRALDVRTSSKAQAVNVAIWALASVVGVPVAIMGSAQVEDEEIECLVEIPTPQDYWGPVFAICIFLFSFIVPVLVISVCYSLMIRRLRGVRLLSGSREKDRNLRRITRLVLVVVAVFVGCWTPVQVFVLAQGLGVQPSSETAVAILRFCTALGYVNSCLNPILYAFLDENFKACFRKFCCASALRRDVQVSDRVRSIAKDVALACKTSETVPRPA

Row | Binder | Ki [1] | % Stimulation of [35S]GTPγS binding [2] | EC50 (nM) of stimulation of [35S]GTPγS binding [2]
1 | B1 | 28.1 nM | 13.7% | 
2 | B2 | 26.7 nM | < 20% | 
3 | B3 | 0.04 nM | 52.7% | 5.2 nM
4 | B4 | 0.05 nM | 70.4% | 2 nM
5 | B5 | 41.9 nM | 37.4% | 358 nM
6 | B6 | 0.17 nM | 43.2% | 3.2 nM
7 | B7 | 5.59 nM | < 20% | 
8 | B8 | 0.63 nM | 33.6% | 7.5 nM
